Assay results as given in patent US6685944.
Read-outs that look alike come from different tables or passages of the source.

B1: wild-type C7A2 peptide (C7A2-WT) (peptide)
peptide: DLMGYIPLV
modifications: not checked
B2: C7A2-8V peptide (peptide)
peptide: DLMGYIPVV
modifications: not checked

What was measured:
[1] = target: HLA-A2.1 on TAP-deficient T2 cells (human); conditions: remark: other sources report otherwise
[2] = target: HLA-A2.1 on TAP-deficient T2 cells (human); test: T2 cell HLA-A2.1 stabilisation assay, flow cytometry with BB7.2

Binder	FI0.5 [1] [µM]	FI0.5 [2] [µM]
B1	10	
B2		15
